Experimental data reported in patent US20180051287A1 (VITRISA THERAPEUTICS, published 2018).

Target: human complement Factor D present in C1q-depleted human serum (human, UniProt P00746 26-253)
Assay: cell-based or functional assay

Sequence of human complement Factor D present in C1q-depleted human serum (P00746 26-253 limits assumed): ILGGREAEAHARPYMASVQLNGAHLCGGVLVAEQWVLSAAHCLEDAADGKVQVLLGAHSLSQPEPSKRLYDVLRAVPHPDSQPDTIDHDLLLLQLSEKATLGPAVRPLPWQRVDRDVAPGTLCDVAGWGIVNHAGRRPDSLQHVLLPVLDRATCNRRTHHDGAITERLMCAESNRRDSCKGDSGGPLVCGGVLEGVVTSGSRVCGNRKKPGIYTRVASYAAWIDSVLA

IC50 inhibiting alternative complement in human serum (fD-dependent lysis of rabbit red blood cells): 3.3 nM
B1: anti-fD Fab with an amino acid sequence of heavy chain variable region according to SEQ ID NO: 71 and light chain variable region according to SEQ ID NO: 72 (Fab)
heavy: EVQLVQSGPELKKPGASVKVSCKASGYTFTNYGMNWVRQAPGQGLEWMGWINTYTGETTYADDFKGRFVFSLDTSVSTAYLQISSLKAEDTAVYYCERGGVNNWGQGTLVTVSSASTKGPSVFPLAPSSKSTSGGTAALGCLVKDYFPEPVTVSWNSGALTSGVHTFPAVLQSSGLYSLSSVVTVPSSSLGTQTYICNVNHKPSNTKVDKKVEPKSCDKTHT
light: DIQVTQSPSSLSASVGDRVTITCITSTDIDDDMNWYQQKPGKVPKLLISGGNTLRPGVPSRFSGSGSGTDFTLTISSLQPEDVATYYCLQSDSLPYTFGQGTKVEIKRTVAAPSVFIFPPSDEQLKSGTASVVCLLNNFYPREAKVQWKVDNALQSGNSQESVTEQDSKDSTYSLSSTLTLSKADYEKHKVYACEVTHQGLSSPVTKSFNRGEC
